# Reference: the DeepSol protein solubility set
# Assay: soluble on expression in E. coli; label from the status in PepcDB or PDB records
row,Sequence,soluble on expression in E. coli
1,MKVILLITIFLSFYSSAETIVVEDTLFYEVAPTSKDDLLETLNSSSPIREDGNVFHGYTKYEINWRFWWKSNNNQCAFTKVETTLKLKYTMPQLTSSKSDVNVVWSNWYPNLEKHEKGHGKLAKDTAFKIEKDLLSIGPKANCNLLEKAGNKLAYKLMATLKKANKQYDIKTNHGETQNAWLYLHL,not soluble
2,MKVLLIIPAYNEEENILRTIASIETFKQEVTHFQHELDYVVINDGSTDGTKQILEANQINAIHLVLNLGIGGAVQTGYKYALENEYDVAVQFDGDGQHDINSLPILLEPLAEGKCDFSIGSRFIPGNEASFQSTKMRRFGIRLLSFCIRMASGKTIYDVTSGYRAGNRKVIAFFAKRYPTNYPEPESIVHLIKKRFVIVERPVNMMERLGGVSSIRALASVKYMLEVGSAILIAAFMKEGDLEHHHHHH,soluble
3,MKVRILGSGTSTGVPQIGCTCPVCTSADPKDNRLRASAIVETEDARILIDCGPDFRAQVLHLPFEKIDGVLITHEHYDHVGGLDDLRPFCRFGAVPIYAEEYVARALRLRMPYCFVDHRYPGVPDIPLQEIEVGHAFSIHHTEVVPLRVMHGRLPILGYRIGRLGYITDMLTMPEESYEQLEGIDVLIMNALRIAPHPTHQNLEEALKVAERIRAKETYFIHMSHDMGLHKKVEKELPENIHLTYDGMEIIF,not soluble
4,MKVVGLDLGGTKIAAGVFDGKRLLSKVVVPTPKEGGERVAEALAEAAERAEREAGVRGEAIGLGTPGPLDFRRGVIRFAPNIPGVQDFPIRRILEEATGRPVFLENDANAAALAEHHLGAAQGEESSLYLTVSTGIGGGVVLGGRVLRGERGQGGELGHLTLLPGGPACGCGLEGCLEALAAGRALERDATYAFQRPVDTRELFRLFQAGDPKAERLVLQAARYVGIGLASLVKAFDPGVVVLGGGVALNAPEGYWEALLEAYRRYLQGWEAPPLRRARLGAEAGLLGAALTAYLEVKDGSG,soluble
5,MKVVIASDHGGMNIRKELVSLLEELNIEYIDLGCECEAGSVDYPDFAFPAAEMVANGEVDRGILVCGTGIGMSIAANKVNGIRCALVHDTFSARATREHNDTNMLAMGERVIGAGLARDIAKIWLTTEFEGGRHENRVGKIKTYEAK,not soluble
6,MKVYLESFGCSASQASAEIMKASIGKLGHELLSPENAGQAEVYICNSCTVKYTTEQKILYKIRSMGEKGVQVIVSGCMPEVQLEDILHANPEAHILGVNAVSRLGDLLSTIEQRKKTGIPGGERLEIRTSEPQGFLNVPRERSNPNIHICQISQGCNFACSYCIVKHARGKLLSFPPEEIIEDIRSAVADGCREIWLTSQDDSQYGMDTGVKLPELLRAISEIPGDFKVRVGMMNPFSVLPILDDLVDAFDSDKIFKLLHLPIQSASHSVLKKMNRLHKMDSVDEIITKFRAHFEDLSLFTDIIVGFCDETDEDFEETIEWVKKYRPEKINISRYSPRPHTKAFSFRNLDSRISVKRSHQLHKVCEQIKIESKNEMIGWKGRVFVSKYTEIGDVLTRTDSYRPVVISGSDLRPGEYAEVKITGAKPGYFLGKLVSLEHHHHHH,soluble
7,MKWLRLQDLPTDNSFAALPAEFYTRLQPRPPAAPRLLHANAEAAALIGLDPAEFSTQAFLDVFSGHAPLPGGDTLAAVYSGHQFGVWAGQLGEVRGPAGGWELQLKGAGMTPYSRMGDGRAVLRSSVREYLASEAMHGLGIPTTRSLALVVSDDPVMRETVETAAVVTRMAPSFVRFGSFEHWSARRQPEQLRVLADYVIDRFYPECRVAGAGRLDGEHGEILGLLAAVTRRTALLMADWQAVGFCHGVMNTDNMSILGLTLDYGPYGFMDTFQLGHICNHSDSEGRYAWNRQPSVGLWNLYRLASSLHTLAPDPEALRAVLDGYEAVFTQAFHGRMAGKLGLPQFLPEDETLLDDLLQLMHQQGADFTLAFRRLGEAVRGQRQPFEDSFIDRAAAGAWYDRLAARHASDGRAAQARAAAMDEVNPLYVLRNHLAEQAIRAAARGDAGEIDILLKLLRNPYKHQPGYDAYAGLAPDWAAGLEVSCSSLEHHHHHH,not soluble
8,MKWMCSICCAAVLLAGGAAQAEAVPNEPINWGFKRSVNHQPPDAGKQLNSLIEKYDAFYLGNTKEKTIYLTFDNGYENGYTPKVLDVLKKHRVTGTFFVTGHFVKDQPQLIKRMSDEGHIIGNHSFHHPDLTTKTADQIQDELDSVNEEVYKITGKQDNLYLRPPRGVFSEYVLKETKRLGYQTVFWSVAFVDWKINNQKGKKYAYDHMIKQAHPGAIYLLHTVSRDNAEALDDAITDLKKQGYTFKSIDDLMFEKEMRLPSL,soluble
9,MKYILVTGGVISGIGKGIIASSIGTILKSCGLRVTAIKIDPYINIDAGTFSPYEHGEVFVLNDGGEVDLDLGNYERFLDINLYKDNNITTGKIYQHVINKERRGDYLGKTVQVVPHITDAVQEWVMNQAKVPVDGNKEEPQICVIELGGTIGDIEGMPFVEAFRQFQFKAKRENFCNIHVSLVPQLSATGEQKTKPTQNSVRALRGLGLSPDLIVCRSSTPIEMAVKEKISMFCHVNPEQVICIHDVSSTYRVPVLLEEQSIVKYFKERLHLPIGAHHHHHH,soluble
10,MKYMITSKGDEKSDLLRLNMIAGFGEYDMEYDDVEPEIVISIGGDGTFLSAFHQYEERLDEIAFIGIHTGHLGFYADWRPAEADKLVKLLAKGEYQKVSYPLLKTTVKYGIGKKEATYLALNESTVKSSGGPFVVDVVINDIHFERFRGDGLCMSTPSGTTAYNKSLGGALMHPSIEAMQLTEMASINNRVYRTIGSPLVFPKHHVVSLQPVNDKDFQISVDHLSILHRDVQEIRYEVSAKKIHFARFRSFPFWRRVHDSFIEDLEHHHHHH,soluble
11,MKYQIVTSGFGGQGAVFIVKLLSLCAGIKGEKYLGTENHGMSQRGGSVSCFIKVGDFYTPVIEENQADMIIALEQNEGLRTLQYLKKGGKLIVNADDSLPRLEGCEAIKVDAFSLAKEGRFPAQALNAFMVGVASMQSGFPFDEETLKKGLEMINPKVAESNIQVFELGRACAPRS,not soluble
12,MKYTVITGASSGIGYAAALAFASRGKNLVLVARRQEELNGLKLKINEMHPELDVVIRKTDLSVTEDVYKLYESLQAFQIETWINNAGFGNFASIAEQNLNKIETMLHVNIEALTILSSLFVRDYSMIDGTQLINVSSGGGYTIVADAVTYCATKFYVSAFTEGLSHELKEQGAKLQAKVLAPAATETEFAKRSFDIDEFQYDNVVPKFHTAKQMAQFMLDLYDNDKVVGIVDGLTYNYELKDPLYNFAVRQKNSNS,not soluble
13,MLAQQRLDFEFRPMTAADVGNAHELSIALKWPHRLEDWAMLQRVAQGFVAVRNGRLIGSAFACHQGEFSTIGLVIVSDDYQGKGIGRKLMELAVGSIPPRTAILNATLAGAPLYEKMGFVSFGEIQQRQGQAQLPDATLLTAEESCRVLSEADHDRVLELGNAGSGLDRSVTLGDLLNNLEHAVGIDRDGQLQAFALLRPFGRGLCIGPVVAQTVEQARHMIEHLLARVPYAFVRIDIPTHCGLADWLEAAGLKRVDSVTCMSMGAVPQAREGVSQFALITQAIG,not soluble
14,MLASFLKLKTYCEQEGFKGWDPYDGLNSKVFRALPLLKQSALCRLIVIQGFKRSPINLRRLALVPKEYNAKGIGLFLQGYCNLYRLVERNPQLTKELGSREELLEQVKKLADLLLELRSPGDYSGACWGYNFDWQARRLFLFPKYTPTVVATNFCATALMEAYEVTRQQEYLDVALSAAQFVIKDLHRTAYRDGFLFSYSPLDGNDTVFNASLLGARLLSYCYHYTKDEAYRTLARQTISACCAAQAEDGSWVYGMLPVQSWIDSFHTGYNLDALIAYQELTGDISFAENIERGLSYYLEHFFEADGMPKYYHDRTYPIDIHCPGQLFVSLARLHRYDEHRELVDRVMAWTISSMQDKKGYFYYQMKPGLSSKIPYMRWSNAFMFCAMSYYLINYKEISGGDFSNDQ,not soluble
15,MLASMTGYAAVSREIPQGSLALELRSVNNRYLDLQFRLPDELRALESEMRDFLGSGLTRGKVDCRLTFSSYSNSYRQQRLNRDLLQDLQIMSDEIKSIFPAAGDFSVAEILRWPGVLDSDHISIDDLRTPCMALLQTALQELVSARKREGEKLHNLLLERVQRMRQLVLDLLPGLPAILASFQERLLNSLKAAGLDEKDERIRQEFTLFANRVDVDEELSRLQGHLNEFEHILLAGGVVGKRLDFLTQELNREANTLASKSVAREVTRIAVEMKVLIEQLREQIQNIE,not soluble
16,MLCTHIKAEDCVERVPKGMFRKKQDMEDNNLFLEGNSNRGKVVKNQEIIKTFCDECDNCNKSLMCLTCGRILCGRNDSGHALHHFEETSHPVVIDCISFELYCYSCDDEVSLDFEPSLYGVLKSLKLLFDREDVMEGGDGPTIPAQPFHSRKNRISHEKSDKLRFSVKKTPIFLRNSIFLSGISENFDFSVKNGKKHQKSIFPPKKPKKSDLSAQKTSKSVFAPKQPKNSEFFNPKKHQISIFPTKNPQKFLFSVEKSIFSTINVQKCAPKKHQISIFPPKKPKNSDFPLKNPQFSFRTVTSVASTFTQKLHVAPASRNSKKKRGKKGKVSPMFVDTPPFQQQQGAAVIHDVTLSSTNSTSSGSGGATSSSEIAYRPRGMRNVGNTCFMNAVLQALASISEFREYIMSLSSLEDYIHDEKEPKNGGNYCYLTDEYRKLLISQSARSFREPTAPNEFREAFISVCPRFRGFRQHDSHEFMRYFMDSLHTEMRKCRKLPGMPDDKHTPISKYFEGTLQSSVICQTCRNCSNKIDEFMDLSLDIPAQRNASKVRLSDCLSTFFKLEMLEKGEKPECAKCKTKQTCSKQMFIRKLPQDSDEAPCTYSLQSIIVHIGYGCGSGHYIAFGKRNGRWFQFDDTVVKGVDEAHVSKQKAYVLLYTKIIRKID,not soluble
17,MLDTLLINIGQLLTMDQEDGLLRREAMNTLPVIENGVVGIENGVITFVGTAEEAKGLQAKEVIDSGGKMVSPGLVDPHTHLVFGGSRENEIALKLQGVPYLEILEQGGGILSTVNATKQASKEELVQKAKFHLDRMLSFGVTTVEAKSGYGLDDETEWKQLEATAQLQKEHPIDLVSTFLGAHAVPKEYKGRSKEFLQWMLDLLPEMKEKQLVEFVDIFCETGVFSVEESKEFLLKAKELGFDVKIHADEIDPLGGAEAAAEIGAASADHLVGASDKGIEMLANSNTVATLLPGTTFYLNKESFARGRKMIDEGVAVALATDFNPGSCPTENIQLIMSIAMLKLKMTPEEVWNAVTVNSSYAINRGDVAGKIRVGRKADLVLWDAYNYAYVPYHYGVSHVNTVWKNGNIAYTRGEQSWSTATI,not soluble
18,MLEFVMREWKKSRKLLGQRLFNKLMKMTFYGHFVAGEDQESIQPLLRHYRAFGVSAILDYGVEEDLSPEEAEHKEMESCTSAAERDGSGTNKRDKQYQAHRAFGDRRNGVISARTYFYANEAKCDSHMETFLRCIEASGRVSDDGFIAIKLTALGRPQFLLQFSEVLAKWRCFFHQMAVEQGQAGLAAMDTKLEVAVLQESVAKLGIASRAEIEDWFTAETLGVSGTMDLLDWSSLIDSRTKLSKHLVVPNAQTGQLEPLLSRFTEEEELQMTRMLQRMDVLAKKATEMGVRLMVDAEQTYFQPAISRLTLEMQRKFNVEKPLIFNTYQCYLKDAYDNVTLDVELARREGWCFGAKLVRGAYLAQERARAAEIGYEDPINPTYEATNAMYHRCLDYVLEELKHNAKAKVMVASHNEDTVRFALRRMEELGLHPADHQVYFGQLLGMCDQISFPLGQAGYPVYKYVPYGPVMEVLPYLSRRALENSSLMKGTHRERQLLWLELLRRLRTGNLFHRPA,soluble
19,MLEGVVRRREGPDYTVRIKPVARSRILTLPDAPERSSPVIVGIDPGITTGLAVLDINGRLLHAESSKSLDRSRVTEIVYGLGRPVIVAVDVADPPETAKKLAAQWGAMLYTPPADLTTSEKWGLARRVLGSSVEDTHVRDLEHHHHHH,not soluble
